From patent US6114132A, “Prosphatase binding assay” (Merck Frosst Canada & Co., priority 1997, dated 2000) come the findings set out here.

By IC50 is commonly meant the concentration that gives 50% inhibition. For orientation: inhibition means how much of the control response was suppressed.

Where a chain is given by its changes, count along the chain named. Square brackets hold non-standard residues; d marks the D form. Peptide text beside a SMILES is read from it. * marks the point of attachment. F2Pmp = N[C@@H](Cc1ccc(C(F)(F)P(=O)(O)O)cc1)C(=O)O; Bz = O=C(c1ccccc1)*

Data set [1] concerns the target GST-PTP1B, mutated (Ser215): GST-PTP-1B Cys215Ser mutant, human PTP1B amino acids 1-320 fused to GST (human). Kind of data set: SPA competition binding assay against tritiated BzN-EJJ-CONH2, GST-PTP1B mutated (Ser215).
The target of data set [2] is GST-PTP1B, non-mutated (Cys215): human recombinant PTP1B amino acids 1-320 fused to GST enzyme (glutathione S-transferase) (human). In words: SPA competition binding assay against tritiated BzN-EJJ-CONH2, GST-PTP1B non-mutated (Cys215).
The target in data set [3] is T1, human recombinant GST-PTP1B, non-mutated (Cys215) (Homo sapiens, UniProt P18031).
T1 construct: Human recombinant PTP1B, containing amino acids 1-320; made in house; host or cells: E. coli
T1 sequence (P18031 1-320): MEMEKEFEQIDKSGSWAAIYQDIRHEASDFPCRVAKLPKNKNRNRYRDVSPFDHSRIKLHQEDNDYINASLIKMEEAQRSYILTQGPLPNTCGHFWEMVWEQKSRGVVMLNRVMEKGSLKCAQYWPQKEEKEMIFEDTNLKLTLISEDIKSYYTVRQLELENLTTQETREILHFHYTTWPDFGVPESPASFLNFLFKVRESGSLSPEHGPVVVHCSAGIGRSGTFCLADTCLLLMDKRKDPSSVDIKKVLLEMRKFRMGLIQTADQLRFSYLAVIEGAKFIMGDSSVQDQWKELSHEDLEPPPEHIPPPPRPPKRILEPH
In words: GST-PTP1B SPA binding assay with non-mutated (Cys215) enzyme. The following applies: read-out: % inhibition, Non-Mutated. The method, then:
(§1) ID No. 7) contains active site serine(215).
(§2) IC50 Binding Assay Protocol
(§3) To each well is added the following solutions @ 25° C. in the following chronological order:
(§4) 1. 110 μl of assay buffer.
(§5) 3. 10 μl. of testing compound in DMSO at 10 different concentrations in serial dilution (final DMSO, about 5% v/v) in duplicate @ 25° C.
(§6) 4. 10 μl. of 3.75 μg/ml purified human recombinant GST-PTP1B in enzyme dilution buffer.
(§7) 5. The plate is shaken for 2 minutes.
(§8) 6. 10 μl. of 0.3 μg/ml anti-glutathione S-transferase (anti-GST) rabbit IgG (Molecular Probes) diluted in antibody dilution buffer @ 25° C.
(§9) 7. The plate is shaken for 2 minutes.
(§10) 8. 50 μl. of protein A-PVT SPA beads (Amersham) @ 25° C.
(§11) 9. The plate is shaken for 5 minutes. The binding signal is quantified on a Microbeta 96-well plate counter.
(§12) 10. The non-specific signal is defined as the enzyme-ligand binding in the absence of anti-GST antibody.
(§13) 11. 100% binding activity is defined as the enzyme-ligand binding in the presence of anti-GST antibody, but in the absence of the testing ligands with the non-specific binding subtracted.
(§14) 12. Percentage of inhibition is calculated accordingly.
(§15) 13. IC50 value is approximated from the non-linear regression fit with the 4-parameter/multiple sites equation (described in: "Robust Statistics", New York, Wiley, by P. J. Huber (1981) and reported in nM units.

For data set [4], the target named is T2, human recombinant GST-PTP1B, mutated (Ser215) (Homo sapiens, UniProt P18031, C215S).
T2 construct: Human recombinant PTP1B, containing amino acids 1-320; made in house; host or cells: bacteria (E. coli DH5alpha named for the transformation)
T2 sequence (P18031 1-320 C215S): T1 sequence (P18031 1-320) with C215S
In words: GST-PTP1B SPA binding assay with mutated enzyme (Ser215). The procedure: as §1, §2, §3, §4, §5, §6, §7, §8, §9, §10, §11, §12, §13, §14, §15

The test system of another data set is PTP1B. In words: inhibition of PTP1B. Format: biochemical. The following applies: type of constant not stated.
Data set [5] is described as follows: phosphatase activity of expressed PTP-1B constructs. In kind it is biochemical. The following applies: expressed (E. coli for GST-PTP-1B) protein. The text has this:
The full length human PTP-1B cDNA sequence (published in J. Chernoff et al., PNAS, USA, supra) cloned into a PET vector was obtained from Dr. Raymond Erickson (Harvard University). The PTP-1B CDNA sequence encoding amino acids 1-320 (Seq. ID No. 1) was amplified by PCR using the full length sequence as template. […] The amplified fragment was cloned into pCR2 (Invitrogen) and sequenced to insure that no sequence errors had been introduced by Taq polymerase during the amplification. This sequence was released from pCR2 by a Bam HI/Eco RI digest and the PTP-1B cDNA fragment ligated into the GST fusion vector pGEX-2T (Pharmacia) that had been digested with the same enzymes. […] This same 1-320 PTP-1B sequence (Seq. ID No. 1) was then cloned into the expression vector pFLAG-2, where FLAG is the octa-peptide […] This was done by releasing the PTP-1B sequence from the pGEX-2T vector by Nco I/Eco RI digest, filling in the ends of this fragment by Klenow and blunt-end ligating into the blunted Eco RI site of pFLAG2. Site-directed mutagenesis was performed on pFLAG2-PTP-1B plasmid using the Chameleon (Stratagene) double-stranded mutagenesis kit from Stratagene, to replaced the active-site Cys-215 with serine. The mutagenesis was carried out essentially as described by the manufacturer and mutants identifed by DNA sequencing. […]

Data set [6] concerns the target PTP1B tyrosine phosphatase (construct not stated) (human).
In data set [7] the target is T3, GST-PTP1B, non-mutated (Cys215): human recombinant PTP1B amino acids 1-320 fused to GST enzyme (glutathione … (human)).
T3 chain: T1 sequence (P18031 1-320)
Kind of data set: SPA competition binding assay against tritiated BzN-EJJ-CONH2, GST-PTP1B non-mutated (Cys215). The method, then:
1. 110 μl of assay buffer. 2. […] 3. 10 μl. of testing compound in DMSO at 10 different concentrations in serial dilution (final DMSO, about 5% v/v) in duplicate @ 25° C. 4. 10 μl. of 3.75 μg/ml purified human recombinant GST-PTP1B in enzyme dilution buffer. 5. The plate is shaken for 2 minutes. 6. 10 μl. of 0.3 μg/ml anti-glutathione S-transferase (anti-GST) rabbit IgG (Molecular Probes) diluted in antibody dilution buffer @ 25° C. 7. The plate is shaken for 2 minutes. 8. 50 μl. of protein A-PVT SPA beads (Amersham) @ 25° C. 9. The plate is shaken for 5 minutes. The binding signal is quantified on a Microbeta 96-well plate counter. 10. The non-specific signal is defined as the enzyme-ligand binding in the absence of anti-GST antibody. 11. 100% binding activity is defined as the enzyme-ligand binding in the presence of anti-GST antibody, but in the absence of the testing ligands with the non-specific binding subtracted. 12. Percentage of inhibition is calculated accordingly.

[8] abbreviates: read-out: % inhibition, Mutated.

On to DADE(F2PMP)L hexapeptide, for which the values for the IC50 in data set [1] and in data set [2] were 100 nM and 400 nM, respectively.

Regarding `OO` [Hydrogen peroxide], the inhibition at 83 µM in data set [3] came to 90%; in data set [4] (setting [8]), 0%. As to `COc1cc(OC)c(OC)cc1CCN=CCc1ncc[nH]1` [Amine], the inhibition at 2 µM in data set [3] came out at 67%; in data set [4] (setting [8]), 10%. As to `NC(=O)[C@H](Cc1ccc(C(F)(F)P(=O)(O)O)cc1)NC(=O)[C@H](Cc1ccc(C(F)(F)P(=O)(O)O)cc1)NC(=O)[C@H](CCC(=O)O)NC(=O)c1ccccc1` [BzN-EJJ-CONH2, N-Benzoyl-L-glutamyl-[4-phosphono(difluoromethyl)]-L-phenylalanyl-[4-phosphono(difluoromethyl)]-L-phenylalanineamide] (Bz-Glu-[F2Pmp]-[F2Pmp]-NH2), the “binding of substrate analog to mutated enzyme” value in data set [4] (mutated enzyme, truncated, amino acids 1-320) is recorded as “high affinity”. In addition, the “active inhibitor of PTP1B” value in the data set with PTP1B came out at 5 nM.

B1: FLAG-PTP-1B Cys215Ser mutant: FLAG-tagged PTP-1B with active-site Cys-215 replaced with serine (Seq. ID No. 7) (protein, UniProt P18031 1-435, looked up, variant C215S)
Tyrosine-protein phosphatase …: MEMEKEFEQIDKSGSWAAIYQDIRHEASDFPCRVAKLPKNKNRNRYRDVSPFDHSRIKLHQEDNDYINASLIKMEEAQRSYILTQGPLPNTCGHFWEMVWEQKSRGVVMLNRVMEKGSLKCAQYWPQKEEKEMIFEDTNLKLTLISEDIKSYYTVRQLELENLTTQETREILHFHYTTWPDFGVPESPASFLNFLFKVRESGSLSPEHGPVVVHSSAGIGRSGTFCLADTCLLLMDKRKDPSSVDIKKVLLEMRKFRMGLIQTADQLRFSYLAVIEGAKFIMGDSSVQDQWKELSHEDLEPPPEHIPPPPRPPKRILEPHNGKCREFFPNHQWVKEETQEDKDCPIKEEKGSPLNAAPYGIESMSQDTEVRSRVVGGSLRGAQAASPAKGEPSLPEKDEDHALSYWKPFLVNMCVATVLTAGAYLCYRFLFNSNT
modifications: FLAG tag
On to B1, for which, in data set [5], the phosphatase activity result is on record as “not to have any phosphatase activity”.

B2: N-Benzoyl-L-glutamyl-[4-phosphono(difluoromethyl)]-L-phenylalanyl-[4-phosphono(difluoromethyl)]-L-phenylalanineamide (BzN-EJJ-CONH2) (peptide)
peptide: Bz-Glu-[F2Pmp]-[F2Pmp]-NH2
Regarding B2, in data set [6], the inhibitor of PTP1B came out at 5 nM. Besides, the IC50 in data set [1] is 8 nM; in data set [7], 14 nM.

B3: GST-PTP-1B fusion protein: PTP-1B amino acids 1-320 fused to GST, expressed in E. Coli (protein)
chain: T1 sequence (P18031 1-320)
As for B3, the phosphatase activity entry in data set [5] is listed as “active protein tyrosine phosphatase activity”.
